# Measurements taken from publication doi:10.1101/2021.05.17.443621 (bioRxiv, 2021).
# T1: Stt3p (yeast (endogenous), UniProt P39007 1-718, N-glycan at N539)
# T1 sequence (looked up): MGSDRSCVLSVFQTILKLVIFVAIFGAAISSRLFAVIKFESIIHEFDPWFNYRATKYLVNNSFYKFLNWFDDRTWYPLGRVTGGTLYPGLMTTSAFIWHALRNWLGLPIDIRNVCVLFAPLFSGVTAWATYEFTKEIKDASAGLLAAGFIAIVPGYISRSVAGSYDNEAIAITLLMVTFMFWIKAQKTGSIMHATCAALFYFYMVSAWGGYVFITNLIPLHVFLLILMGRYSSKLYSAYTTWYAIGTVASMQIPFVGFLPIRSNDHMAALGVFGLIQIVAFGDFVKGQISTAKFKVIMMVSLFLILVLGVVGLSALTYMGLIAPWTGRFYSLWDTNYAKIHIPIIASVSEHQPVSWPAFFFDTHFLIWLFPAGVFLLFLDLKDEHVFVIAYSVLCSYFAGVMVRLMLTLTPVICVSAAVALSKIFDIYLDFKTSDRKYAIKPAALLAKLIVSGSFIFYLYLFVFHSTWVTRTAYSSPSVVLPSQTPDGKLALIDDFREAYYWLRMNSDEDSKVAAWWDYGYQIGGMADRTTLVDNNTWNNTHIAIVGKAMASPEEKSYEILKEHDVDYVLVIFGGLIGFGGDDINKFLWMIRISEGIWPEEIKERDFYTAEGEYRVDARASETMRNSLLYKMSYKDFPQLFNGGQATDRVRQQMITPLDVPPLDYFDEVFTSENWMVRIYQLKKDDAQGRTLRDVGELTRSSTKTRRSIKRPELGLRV
# Target: T1, Stt3p
# Test: cryo-EM structure
binder,measurement,value
"Ost6p (natural protein, yeast, UniProt Q03723 25-332, looked up) TASHNIDDILQLKDDTGVITVTADNYPLLSRGVPGYFNILYITMRGTNSNGMSCQLCHDFEKTYHAVADVIRSQAPQSLNLFFTVDVNEVPQLVKDLKLQNVPHLVVYPPAESNKQSQFEWKTSPFYQYSLVPENAENTLQFGDFLAKILNISITVPQAFNVQEFVYYFVACMVVFIFIKKVILPKVTNKWKLFSMILSLGILLPSITGYKFVEMNAIPFIARDAKNRIMYFSGGSGWQFGIEIFSVSLMYIVMSALSVLLIYVPKISCVSEKMRGLLSSFLACVLFYFFSYFISCYLIKNPGYPIVF",binding result,binds
